Patent US20150344570A1 (published 2015)

T1: FcγRIIa R extracellular domain with C-terminal His tag (human, UniProt P12318 34-217)
T1 construct: extracellular domain; also called FcgRIIa R; 2aR; not shown: His tag at the C terminus
T1 sequence (looked up): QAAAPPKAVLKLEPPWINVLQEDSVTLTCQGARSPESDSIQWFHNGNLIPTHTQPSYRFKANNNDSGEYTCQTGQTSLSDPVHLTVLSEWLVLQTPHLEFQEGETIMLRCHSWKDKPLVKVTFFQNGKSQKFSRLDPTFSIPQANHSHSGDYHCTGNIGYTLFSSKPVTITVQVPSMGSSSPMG


Biological target: T1, FcγRIIa R extracellular domain with …
Test: SPR (Biacore), relative FcγRIIa R binding, GpH7-A5/GpH7-B3/GpL16-k0 = 100

Binder	He/Con_2aR
GpH7-A5/GpH7-B3 variant L328_14T/GpL16-k0 (antibody, human IgG1, kappa, heterodimerized: alteration in one H chain only; also called He Ab L328_14T) heavy 1: not shown heavy 2: not shown light: DIVMTQSPLSLPVTPGEPASISCQASESLVHSNRNTYLHWYLQKPGQSPQLLIYKVSNRFSGVPDRFSGSGSGTDFTLKISRVEAEDVGVYYCSQNTHVPPTFGQGTKVEIERTVAAPSVFIFPPSDEQLKSGTASVVCLLNNFYPREAKVQWKVDNALQSGNSQESVTEQDSKDSTYSLSSTLTLSKADYEKHKVYACEVTHQGLSSPVTKSFNRGEC	119 % of control
GpH7-A5/GpH7-B3 variant S267_19Q/GpL16-k0 (antibody, human IgG1, kappa, heterodimerized: alteration in one H chain only; also called He Ab S267_19Q) heavy 1: not shown heavy 2: not shown light: DIVMTQSPLSLPVTPGEPASISCQASESLVHSNRNTYLHWYLQKPGQSPQLLIYKVSNRFSGVPDRFSGSGSGTDFTLKISRVEAEDVGVYYCSQNTHVPPTFGQGTKVEIERTVAAPSVFIFPPSDEQLKSGTASVVCLLNNFYPREAKVQWKVDNALQSGNSQESVTEQDSKDSTYSLSSTLTLSKADYEKHKVYACEVTHQGLSSPVTKSFNRGEC	135 % of control
GpH7-A5/GpH7-B3 variant P331_15Y/GpL16-k0 (antibody, human IgG1, kappa, heterodimerized: alteration in one H chain only; also called He Ab P331_15Y) heavy 1: not shown heavy 2: not shown light: DIVMTQSPLSLPVTPGEPASISCQASESLVHSNRNTYLHWYLQKPGQSPQLLIYKVSNRFSGVPDRFSGSGSGTDFTLKISRVEAEDVGVYYCSQNTHVPPTFGQGTKVEIERTVAAPSVFIFPPSDEQLKSGTASVVCLLNNFYPREAKVQWKVDNALQSGNSQESVTEQDSKDSTYSLSSTLTLSKADYEKHKVYACEVTHQGLSSPVTKSFNRGEC	112 % of control
GpH7-A5/GpH7-B3 variant S239_10E/GpL16-k0 (antibody, human IgG1, kappa, heterodimerized: alteration in one H chain only; also called He Ab S239_10E) heavy 1: not shown heavy 2: not shown light: DIVMTQSPLSLPVTPGEPASISCQASESLVHSNRNTYLHWYLQKPGQSPQLLIYKVSNRFSGVPDRFSGSGSGTDFTLKISRVEAEDVGVYYCSQNTHVPPTFGQGTKVEIERTVAAPSVFIFPPSDEQLKSGTASVVCLLNNFYPREAKVQWKVDNALQSGNSQESVTEQDSKDSTYSLSSTLTLSKADYEKHKVYACEVTHQGLSSPVTKSFNRGEC	135 % of control
GpH7-A5/GpH7-B3 variant S239_08L/GpL16-k0 (antibody, human IgG1, kappa, heterodimerized: alteration in one H chain only; also called He Ab S239_08L) heavy 1: not shown heavy 2: not shown light: DIVMTQSPLSLPVTPGEPASISCQASESLVHSNRNTYLHWYLQKPGQSPQLLIYKVSNRFSGVPDRFSGSGSGTDFTLKISRVEAEDVGVYYCSQNTHVPPTFGQGTKVEIERTVAAPSVFIFPPSDEQLKSGTASVVCLLNNFYPREAKVQWKVDNALQSGNSQESVTEQDSKDSTYSLSSTLTLSKADYEKHKVYACEVTHQGLSSPVTKSFNRGEC	122 % of control
GpH7-A5/GpH7-B3 variant P331_02A/GpL16-k0 (antibody, human IgG1, kappa, heterodimerized: alteration in one H chain only; also called He Ab P331_02A) heavy 1: not shown heavy 2: not shown light: DIVMTQSPLSLPVTPGEPASISCQASESLVHSNRNTYLHWYLQKPGQSPQLLIYKVSNRFSGVPDRFSGSGSGTDFTLKISRVEAEDVGVYYCSQNTHVPPTFGQGTKVEIERTVAAPSVFIFPPSDEQLKSGTASVVCLLNNFYPREAKVQWKVDNALQSGNSQESVTEQDSKDSTYSLSSTLTLSKADYEKHKVYACEVTHQGLSSPVTKSFNRGEC	106 % of control
GpH7-A5/GpH7-B3 variant S298_08L/GpL16-k0 (antibody, human IgG1, kappa, heterodimerized: alteration in one H chain only; also called He Ab S298_08L) heavy 1: not shown heavy 2: not shown light: DIVMTQSPLSLPVTPGEPASISCQASESLVHSNRNTYLHWYLQKPGQSPQLLIYKVSNRFSGVPDRFSGSGSGTDFTLKISRVEAEDVGVYYCSQNTHVPPTFGQGTKVEIERTVAAPSVFIFPPSDEQLKSGTASVVCLLNNFYPREAKVQWKVDNALQSGNSQESVTEQDSKDSTYSLSSTLTLSKADYEKHKVYACEVTHQGLSSPVTKSFNRGEC	105 % of control
GpH7-A5/GpH7-B3 variant P271_08L/GpL16-k0 (antibody, human IgG1, kappa, heterodimerized: alteration in one H chain only; also called He Ab P271_08L) heavy 1: not shown heavy 2: not shown light: DIVMTQSPLSLPVTPGEPASISCQASESLVHSNRNTYLHWYLQKPGQSPQLLIYKVSNRFSGVPDRFSGSGSGTDFTLKISRVEAEDVGVYYCSQNTHVPPTFGQGTKVEIERTVAAPSVFIFPPSDEQLKSGTASVVCLLNNFYPREAKVQWKVDNALQSGNSQESVTEQDSKDSTYSLSSTLTLSKADYEKHKVYACEVTHQGLSSPVTKSFNRGEC	104 % of control
GpH7-A5/GpH7-B3 variant S267_09D/GpL16-k0 (antibody, human IgG1, kappa, heterodimerized: alteration in one H chain only; also called He Ab S267_09D) heavy 1: not shown heavy 2: not shown light: DIVMTQSPLSLPVTPGEPASISCQASESLVHSNRNTYLHWYLQKPGQSPQLLIYKVSNRFSGVPDRFSGSGSGTDFTLKISRVEAEDVGVYYCSQNTHVPPTFGQGTKVEIERTVAAPSVFIFPPSDEQLKSGTASVVCLLNNFYPREAKVQWKVDNALQSGNSQESVTEQDSKDSTYSLSSTLTLSKADYEKHKVYACEVTHQGLSSPVTKSFNRGEC	173 % of control
GpH7-A5/GpH7-B3 variant S267_06M/GpL16-k0 (antibody, human IgG1, kappa, heterodimerized: alteration in one H chain only; also called He Ab S267_06M) heavy 1: not shown heavy 2: not shown light: DIVMTQSPLSLPVTPGEPASISCQASESLVHSNRNTYLHWYLQKPGQSPQLLIYKVSNRFSGVPDRFSGSGSGTDFTLKISRVEAEDVGVYYCSQNTHVPPTFGQGTKVEIERTVAAPSVFIFPPSDEQLKSGTASVVCLLNNFYPREAKVQWKVDNALQSGNSQESVTEQDSKDSTYSLSSTLTLSKADYEKHKVYACEVTHQGLSSPVTKSFNRGEC	122 % of control
GpH7-A5/GpH7-B3 variant S267_03V/GpL16-k0 (antibody, human IgG1, kappa, heterodimerized: alteration in one H chain only; also called He Ab S267_03V) heavy 1: not shown heavy 2: not shown light: DIVMTQSPLSLPVTPGEPASISCQASESLVHSNRNTYLHWYLQKPGQSPQLLIYKVSNRFSGVPDRFSGSGSGTDFTLKISRVEAEDVGVYYCSQNTHVPPTFGQGTKVEIERTVAAPSVFIFPPSDEQLKSGTASVVCLLNNFYPREAKVQWKVDNALQSGNSQESVTEQDSKDSTYSLSSTLTLSKADYEKHKVYACEVTHQGLSSPVTKSFNRGEC	116 % of control
GpH7-A5/GpH7-B3 variant P331_20W/GpL16-k0 (antibody, human IgG1, kappa, heterodimerized: alteration in one H chain only; also called He Ab P331_20W) heavy 1: not shown heavy 2: not shown light: DIVMTQSPLSLPVTPGEPASISCQASESLVHSNRNTYLHWYLQKPGQSPQLLIYKVSNRFSGVPDRFSGSGSGTDFTLKISRVEAEDVGVYYCSQNTHVPPTFGQGTKVEIERTVAAPSVFIFPPSDEQLKSGTASVVCLLNNFYPREAKVQWKVDNALQSGNSQESVTEQDSKDSTYSLSSTLTLSKADYEKHKVYACEVTHQGLSSPVTKSFNRGEC	110 % of control
GpH7-A5/GpH7-B3 variant S324_06M/GpL16-k0 (antibody, human IgG1, kappa, heterodimerized: alteration in one H chain only; also called He Ab S324_06M) heavy 1: not shown heavy 2: not shown light: DIVMTQSPLSLPVTPGEPASISCQASESLVHSNRNTYLHWYLQKPGQSPQLLIYKVSNRFSGVPDRFSGSGSGTDFTLKISRVEAEDVGVYYCSQNTHVPPTFGQGTKVEIERTVAAPSVFIFPPSDEQLKSGTASVVCLLNNFYPREAKVQWKVDNALQSGNSQESVTEQDSKDSTYSLSSTLTLSKADYEKHKVYACEVTHQGLSSPVTKSFNRGEC	123 % of control
GpH7-A5/GpH7-B3 variant P331_04F/GpL16-k0 (antibody, human IgG1, kappa, heterodimerized: alteration in one H chain only; also called He Ab P331_04F) heavy 1: not shown heavy 2: not shown light: DIVMTQSPLSLPVTPGEPASISCQASESLVHSNRNTYLHWYLQKPGQSPQLLIYKVSNRFSGVPDRFSGSGSGTDFTLKISRVEAEDVGVYYCSQNTHVPPTFGQGTKVEIERTVAAPSVFIFPPSDEQLKSGTASVVCLLNNFYPREAKVQWKVDNALQSGNSQESVTEQDSKDSTYSLSSTLTLSKADYEKHKVYACEVTHQGLSSPVTKSFNRGEC	111 % of control
GpH7-A5/GpH7-B3 variant P331_16H/GpL16-k0 (antibody, human IgG1, kappa, heterodimerized: alteration in one H chain only; also called He Ab P331_16H) heavy 1: not shown heavy 2: not shown light: DIVMTQSPLSLPVTPGEPASISCQASESLVHSNRNTYLHWYLQKPGQSPQLLIYKVSNRFSGVPDRFSGSGSGTDFTLKISRVEAEDVGVYYCSQNTHVPPTFGQGTKVEIERTVAAPSVFIFPPSDEQLKSGTASVVCLLNNFYPREAKVQWKVDNALQSGNSQESVTEQDSKDSTYSLSSTLTLSKADYEKHKVYACEVTHQGLSSPVTKSFNRGEC	114 % of control
GpH7-A5/GpH7-B3 variant S337_06M/GpL16-k0 (antibody, human IgG1, kappa, heterodimerized: alteration in one H chain only; also called He Ab S337_06M) heavy 1: not shown heavy 2: not shown light: DIVMTQSPLSLPVTPGEPASISCQASESLVHSNRNTYLHWYLQKPGQSPQLLIYKVSNRFSGVPDRFSGSGSGTDFTLKISRVEAEDVGVYYCSQNTHVPPTFGQGTKVEIERTVAAPSVFIFPPSDEQLKSGTASVVCLLNNFYPREAKVQWKVDNALQSGNSQESVTEQDSKDSTYSLSSTLTLSKADYEKHKVYACEVTHQGLSSPVTKSFNRGEC	105 % of control
GpH7-A5/GpH7-B3 variant S337_03V/GpL16-k0 (antibody, human IgG1, kappa, heterodimerized: alteration in one H chain only; also called He Ab S337_03V) heavy 1: not shown heavy 2: not shown light: DIVMTQSPLSLPVTPGEPASISCQASESLVHSNRNTYLHWYLQKPGQSPQLLIYKVSNRFSGVPDRFSGSGSGTDFTLKISRVEAEDVGVYYCSQNTHVPPTFGQGTKVEIERTVAAPSVFIFPPSDEQLKSGTASVVCLLNNFYPREAKVQWKVDNALQSGNSQESVTEQDSKDSTYSLSSTLTLSKADYEKHKVYACEVTHQGLSSPVTKSFNRGEC	106 % of control
GpH7-A5/GpH7-B3 variant S239_18N/GpL16-k0 (antibody, human IgG1, kappa, heterodimerized: alteration in one H chain only; also called He Ab S239_18N) heavy 1: not shown heavy 2: not shown light: DIVMTQSPLSLPVTPGEPASISCQASESLVHSNRNTYLHWYLQKPGQSPQLLIYKVSNRFSGVPDRFSGSGSGTDFTLKISRVEAEDVGVYYCSQNTHVPPTFGQGTKVEIERTVAAPSVFIFPPSDEQLKSGTASVVCLLNNFYPREAKVQWKVDNALQSGNSQESVTEQDSKDSTYSLSSTLTLSKADYEKHKVYACEVTHQGLSSPVTKSFNRGEC	111 % of control
GpH7-A5/GpH7-B3 variant P238_04F/GpL16-k0 (antibody, human IgG1, kappa, heterodimerized: alteration in one H chain only; also called He Ab P238_04F) heavy 1: not shown heavy 2: not shown light: DIVMTQSPLSLPVTPGEPASISCQASESLVHSNRNTYLHWYLQKPGQSPQLLIYKVSNRFSGVPDRFSGSGSGTDFTLKISRVEAEDVGVYYCSQNTHVPPTFGQGTKVEIERTVAAPSVFIFPPSDEQLKSGTASVVCLLNNFYPREAKVQWKVDNALQSGNSQESVTEQDSKDSTYSLSSTLTLSKADYEKHKVYACEVTHQGLSSPVTKSFNRGEC	174 % of control
GpH7-A5/GpH7-B3 variant P238_03V/GpL16-k0 (antibody, human IgG1, kappa, heterodimerized: alteration in one H chain only; also called He Ab P238_03V) heavy 1: not shown heavy 2: not shown light: DIVMTQSPLSLPVTPGEPASISCQASESLVHSNRNTYLHWYLQKPGQSPQLLIYKVSNRFSGVPDRFSGSGSGTDFTLKISRVEAEDVGVYYCSQNTHVPPTFGQGTKVEIERTVAAPSVFIFPPSDEQLKSGTASVVCLLNNFYPREAKVQWKVDNALQSGNSQESVTEQDSKDSTYSLSSTLTLSKADYEKHKVYACEVTHQGLSSPVTKSFNRGEC	120 % of control
GpH7-A5/GpH7-B3 variant S337_07I/GpL16-k0 (antibody, human IgG1, kappa, heterodimerized: alteration in one H chain only; also called He Ab S337_07I) heavy 1: not shown heavy 2: not shown light: DIVMTQSPLSLPVTPGEPASISCQASESLVHSNRNTYLHWYLQKPGQSPQLLIYKVSNRFSGVPDRFSGSGSGTDFTLKISRVEAEDVGVYYCSQNTHVPPTFGQGTKVEIERTVAAPSVFIFPPSDEQLKSGTASVVCLLNNFYPREAKVQWKVDNALQSGNSQESVTEQDSKDSTYSLSSTLTLSKADYEKHKVYACEVTHQGLSSPVTKSFNRGEC	109 % of control
